Literature values in publication PMC6368066 (Neuromuscular disorders : NMD, 2018).
Where no end group is shown, it is not given here.

Assays:
Piezo 1 = Piezo 1 (UniProt E2JF22); assay: outside-out patch clamp
mdx muscles = mdx muscles in vitro, 10 μM
dystrophin = conditions: phase III trials, over 180 weeks

UniProt E2JF22, sequence (E2JF22 whole entry): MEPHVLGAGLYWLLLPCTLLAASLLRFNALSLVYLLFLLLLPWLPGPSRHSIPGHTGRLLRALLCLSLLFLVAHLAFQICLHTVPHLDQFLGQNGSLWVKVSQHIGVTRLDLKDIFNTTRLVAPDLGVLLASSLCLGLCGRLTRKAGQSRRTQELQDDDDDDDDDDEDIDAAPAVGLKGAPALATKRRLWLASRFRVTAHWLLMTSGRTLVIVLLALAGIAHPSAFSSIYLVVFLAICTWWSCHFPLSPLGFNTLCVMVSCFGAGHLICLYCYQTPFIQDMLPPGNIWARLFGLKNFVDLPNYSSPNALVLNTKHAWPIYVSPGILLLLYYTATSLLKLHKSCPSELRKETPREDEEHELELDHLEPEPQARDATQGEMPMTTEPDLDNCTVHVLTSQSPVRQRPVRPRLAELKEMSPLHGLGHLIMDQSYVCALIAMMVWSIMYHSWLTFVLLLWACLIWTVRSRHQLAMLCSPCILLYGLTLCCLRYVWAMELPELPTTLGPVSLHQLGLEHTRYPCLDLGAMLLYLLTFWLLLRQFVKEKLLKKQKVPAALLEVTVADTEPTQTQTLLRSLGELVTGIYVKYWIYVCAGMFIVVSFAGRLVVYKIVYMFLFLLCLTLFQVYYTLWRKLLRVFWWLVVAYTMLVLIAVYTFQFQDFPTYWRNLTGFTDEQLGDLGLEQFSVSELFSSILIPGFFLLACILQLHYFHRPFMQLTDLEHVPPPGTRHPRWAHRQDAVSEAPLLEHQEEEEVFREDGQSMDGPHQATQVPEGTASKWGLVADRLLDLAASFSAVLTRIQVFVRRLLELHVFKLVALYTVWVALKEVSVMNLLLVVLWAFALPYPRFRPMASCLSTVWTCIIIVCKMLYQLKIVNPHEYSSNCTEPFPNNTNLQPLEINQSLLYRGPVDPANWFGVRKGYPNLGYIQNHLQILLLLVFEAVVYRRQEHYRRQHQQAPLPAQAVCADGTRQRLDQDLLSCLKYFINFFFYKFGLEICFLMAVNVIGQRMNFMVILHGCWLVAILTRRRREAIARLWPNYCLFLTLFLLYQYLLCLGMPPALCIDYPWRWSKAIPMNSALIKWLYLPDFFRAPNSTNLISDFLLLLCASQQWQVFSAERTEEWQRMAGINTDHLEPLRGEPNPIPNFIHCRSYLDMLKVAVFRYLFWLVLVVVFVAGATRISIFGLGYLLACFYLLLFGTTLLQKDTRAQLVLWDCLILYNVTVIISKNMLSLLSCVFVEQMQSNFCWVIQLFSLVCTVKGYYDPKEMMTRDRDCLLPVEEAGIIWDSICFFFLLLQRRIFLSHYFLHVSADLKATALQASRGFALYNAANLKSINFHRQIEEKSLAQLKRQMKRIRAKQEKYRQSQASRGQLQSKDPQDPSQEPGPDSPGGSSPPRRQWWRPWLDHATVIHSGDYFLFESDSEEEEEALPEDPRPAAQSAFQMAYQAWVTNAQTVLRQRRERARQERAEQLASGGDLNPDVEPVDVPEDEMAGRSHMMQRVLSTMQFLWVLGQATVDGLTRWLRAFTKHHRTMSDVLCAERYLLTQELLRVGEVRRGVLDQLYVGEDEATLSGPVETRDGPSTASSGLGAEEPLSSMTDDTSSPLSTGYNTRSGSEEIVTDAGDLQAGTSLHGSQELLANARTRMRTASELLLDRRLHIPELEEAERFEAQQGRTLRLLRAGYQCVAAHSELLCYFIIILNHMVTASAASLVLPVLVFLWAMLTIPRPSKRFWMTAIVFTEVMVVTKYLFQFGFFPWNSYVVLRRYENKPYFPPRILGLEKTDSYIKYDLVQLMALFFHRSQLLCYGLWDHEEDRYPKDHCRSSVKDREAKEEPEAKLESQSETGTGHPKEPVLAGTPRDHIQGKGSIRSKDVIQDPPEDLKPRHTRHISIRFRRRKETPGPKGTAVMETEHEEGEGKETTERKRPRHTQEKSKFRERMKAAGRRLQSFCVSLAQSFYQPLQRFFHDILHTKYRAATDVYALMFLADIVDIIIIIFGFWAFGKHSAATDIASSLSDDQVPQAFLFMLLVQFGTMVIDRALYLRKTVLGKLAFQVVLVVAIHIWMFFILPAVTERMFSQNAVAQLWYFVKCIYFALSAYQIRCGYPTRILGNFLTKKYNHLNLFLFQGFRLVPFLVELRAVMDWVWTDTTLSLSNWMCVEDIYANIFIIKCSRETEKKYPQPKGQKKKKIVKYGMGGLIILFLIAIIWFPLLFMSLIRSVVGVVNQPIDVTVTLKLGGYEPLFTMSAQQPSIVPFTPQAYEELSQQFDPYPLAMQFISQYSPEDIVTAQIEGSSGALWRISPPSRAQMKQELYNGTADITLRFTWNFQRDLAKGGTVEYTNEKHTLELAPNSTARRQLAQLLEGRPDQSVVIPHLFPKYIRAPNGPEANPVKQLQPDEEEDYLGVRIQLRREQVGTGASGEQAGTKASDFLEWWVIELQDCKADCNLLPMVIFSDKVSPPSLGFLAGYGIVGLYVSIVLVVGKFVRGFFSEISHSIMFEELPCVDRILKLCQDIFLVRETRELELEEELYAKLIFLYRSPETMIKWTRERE

Substance: GsMTx4 (from UniProt Q7YT39)
- Kd (Piezo 1): 500 nM

Substance: GsMTx4: 34 amino acid peptide that selectively inhibits nonselective cationic MSCs (GCLEFWWKCNPNDDKCCRPKLKCSKLFKLCNFSF; ends and bridges not checked; cysteine pairing not given here; UniProt Q7YT39 47-80, looked up)
- contraction-induced dye accumulation (mdx muscles): reduced contraction-induced dye accumulation

Substance: eteplirsen
- dystrophin levels (dystrophin): ~ 1 % of normal dystrophin levels

Substance: glucagon
- serum half-life: 1 to 2 min
